Where two headings read alike, the source gives them in different places. Marks after values point to notes of the source that are not given here.
Tests used:
[1] = tested on: cells that line the nasal cavity; conditions: 0.125% TDM, ref Arnold et al., 2004; cited from earlier work
[2] = tested on: anesthetized, hyperglycemic rats; experiment: Blood glucose levels; assay type: in vivo, rat; conditions: nose drops, 2 units of insulin, mean +/- SEM, n=3-6; for Blood Glucose AUC 0-180: trapezoidal rule
[3] = rat, in vivo
[4] = rat, in vivo; remark: listed apart in the source
[5] = Plasma insulin levels after nasal administration of insulin nose drops; conditions: rats, 2 units of insulin, with 0.125% TDM, human insulin RIA, mean +/- SEM, n = 3-6
[6] = with 0.125% TDM, basal glucose 303 to 393 mg/dl

Row | Compound | Toxicity to the cells that line the nasal cavity [1] | Blood Glucose at 60 minutes after Insulin administration [2, 6] | Plasma Insulin AUC 0-180 [3] | Plasma Insulin T-max [3] [min] | Absorption of insulin from the nasal cavity (in words) [4] | Blood Glucose AUC 0-180 [2, 6] | Plasma Insulin C-max [3] | Blood Glucose AUC 0-180 ([2]; without TDM (0%)) [mg·min/dL] | Blood Glucose at 60 minutes after Insulin administration ([2]; without TDM (0%), upper limit of glucometer = 600 mg/dL) | Plasma Insulin C-max [5] | Plasma Insulin AUC 0-180 ([5]; up to 180 minutes, trapezoidal rule)
1 | CCCCCCCCCCCCCCO[C@@H]1O[C@H](CO)[C@@H](O[C@H]2O[C@H](CO)[C@@H](O)[C@H](O)[C@H]2O)[C@H](O)[C@H]1O [TDM, tetradecyl-β-D-maltoside] | minimal toxicity | – | – | – | – | – | – | – | – | – | –
2 | Aspart Insulin | – | 205 +/- 13 ^a, ^b mg/dL | 55238 +/- 4600 ^a, ^b uU/ml × minutes | 15 | absorbed from the nasal cavity | – | – | – | – | – | –
3 | Glargine Insulin | – | 183 +/- 26 ^a mg/dL | 67170 +/- 4800 ^a, ^b uU/ml × minutes | 60 | absorbed from the nasal cavity | 36345 +/- 3600 ^a mg/dL × minutes | 500 +/- 52 ^a, ^b uU/ml | – | – | – | –
4 | Lispro Insulin | – | 160 +/- 27 ^a mg/dL | 41820 +/- 3300 ^a uU/ml × minutes | 15 | – | 39863 +/- 3200 ^a mg/dL × minutes | – | – | – | – | –
5 | Regular Insulin: regular insulin (Novolin R®), Novo Nordisk | – | 135 +/- 22 ^a mg/dL | – | – | – | 32745 +/- 2400 ^a mg/dL × minutes | – | 93728 ± 2600 | 600 +/- 10 ^** mg/dL | 874 +/- 56 ^a uU/ml | 33398 +/- 2500 ^a uU/ml × minutes

Source: publication PMC2834479 (International journal of pharmaceutics, 2010)
